Laboratory results published in patent US20200405762A1 (published 2020).

Assays:
Experiment in all cases: multimer staining
[1] = target: T1, cyclin A1 (CCNA1), isoform 3 (SEQ ID NO:4) peptide on HLA-A*02:01 (human)
T1 peptide: SLIAAAAFCLA

[2] = target: T2, cyclin A1 (CCNA1), isoform 3 (SEQ ID NO:4) peptide on HLA-A*02:01 (human)
T2 peptide: YSLSEIVPCL

[3] = target: T3, cyclin A1 (CCNA1), isoform 3 (SEQ ID NO:4) peptide on HLA-A*02:01 (human)
T3 peptide: FLDRFLSCM

Row | Binder | binding result [3] | other results
1 | TCR #7 (TCR, V domains shown) Valpha: ILNVEQSPQSLHVQEGDSTNFTCSFPSSNFYALHWYRWETAKSPEALFVMTLNGDEKKKGRISATLNTKEGYSYLYIKGSQPEDSATYLCAYLGAGNQFYFGTGTSLTVIP Vbeta: DGGITQSPKYLFRKEGQNVTLSCEQNLNHDAMYWYRQDPGQGLRLIYYSQIVNDFQKGDIAEGYSVSREKKESFPLTVTSAQKNPTAFYLCASSLNRGRYGYTFGSGTRLTVV |  | binding result [1]: recognises
2 | TCR #8 (TCR, V domains shown) Valpha: AQKVTQAQTEISVVEKEDVTLDCVYETRDTTYYLFWYKQPPSGELVFLIRRNSFDEQNEISGRYSWNFQKSTSSFNFTITASQVVDSAVYFCALSELASGGSYIPTFGRGTSLIVHP Vbeta: DAGVTQSPTHLIKTRGQQVTLRCSPKSGHDTVSWYQQALGQGPQFIFQYYEEEERQRGNFPDRFSGHQFPNYSSELNVNALLLGDSALYLCASSFRLAGGPSTDTQYFGPGTRLTVL |  | binding result [2]: recognises
3 | TCR #3 (TCR, V domains shown) Valpha: QKEVEQNSGPLSVPEGAIASLNCTYSDRGSQSFFWYRQYSGKSPELIMSIYSNGDKEDGRFTAQLNKASQYVSLLIRDSQPSDSATYLCAVDSGGYQKVTFGTGTKLQVIP Vbeta: GAGVSQTPSNKVTEKGKYVELRCDPISGHTALYWYRQSLGQGPEFLIYFQGTGAADDSGLPNDRFFAVRPEGSVSTLKIQRTERGDSAVYLCASSLNMNTEAFFGQGTRLTVV | recognises | 
4 | TCR #4 (TCR, V domains shown) Valpha: SQQGEEDPQALSIQEGENATMNCSYKTSINNLQWYRQNSGRGLVHLILIRSNEREKHSGRLRVTLDTSKKSSSLLITASRAADTASYFCATDAWESNFGNEKLTFGTGTRLTIIP Vbeta: GAGVSQSPSNKVTEKGKDVELRCDPISGHTALYWYRQSLGQGLEFLIYFQGNSAPDKSGLPSDRFSAERTGGSVSTLTIQRTQQEDSAVYLCASSLVVGSYEQYFGPGTRLTVT | recognises | 
